Laboratory results reported in paper PMC7855534.

Target: C-terminally strep-tagged wild-type GRK5 (human) (UniProt P34947)
Assay: ITC

UniProt P34947, sequence (P34947 whole entry): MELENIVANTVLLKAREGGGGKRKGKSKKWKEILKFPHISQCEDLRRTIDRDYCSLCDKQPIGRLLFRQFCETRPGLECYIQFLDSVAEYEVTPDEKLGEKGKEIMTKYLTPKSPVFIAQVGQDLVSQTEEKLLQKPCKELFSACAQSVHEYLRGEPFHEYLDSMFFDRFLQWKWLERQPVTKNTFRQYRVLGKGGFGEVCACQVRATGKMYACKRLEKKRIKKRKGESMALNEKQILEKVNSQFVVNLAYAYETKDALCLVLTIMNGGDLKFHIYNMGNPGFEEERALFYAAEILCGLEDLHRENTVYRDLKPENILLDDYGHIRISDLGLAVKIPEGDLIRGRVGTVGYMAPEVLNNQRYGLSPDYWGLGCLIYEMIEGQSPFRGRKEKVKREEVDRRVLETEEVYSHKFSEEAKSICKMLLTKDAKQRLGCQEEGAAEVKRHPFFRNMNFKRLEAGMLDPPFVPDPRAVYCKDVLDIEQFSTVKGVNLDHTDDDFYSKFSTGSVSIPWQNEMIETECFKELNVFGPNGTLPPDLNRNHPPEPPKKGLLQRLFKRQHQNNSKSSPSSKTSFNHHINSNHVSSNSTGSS

Kd: 278 nM
dH: 4.3 kcal/mol
Substance: wild-type rat calmodulin (from UniProt P0DP29 1-149) (natural protein; other documents disagree on this pair)
